The source of these data is article PMC8813914, “The IGFBP3/TMEM219 pathway regulates beta cell homeostasis” (Nature Communications, 2022).

The assay has as its target T1, recombinant human IGFBP3 (insulin-like growth factor binding protein 3) (human, UniProt P17936 28-291).
T1 construct: as far as I recall the product is the mature protein without the signal peptide (about Gly28-Lys291); also called rh-IGFBP3; source: bought: R&D Systems, 8874-B3; expressed in S9-baculovirus, purity >95%
The assay is described as follows: SPR; Biacore 8 K. As to conditions: both partners purified.

T1 sequence (P17936 28-291): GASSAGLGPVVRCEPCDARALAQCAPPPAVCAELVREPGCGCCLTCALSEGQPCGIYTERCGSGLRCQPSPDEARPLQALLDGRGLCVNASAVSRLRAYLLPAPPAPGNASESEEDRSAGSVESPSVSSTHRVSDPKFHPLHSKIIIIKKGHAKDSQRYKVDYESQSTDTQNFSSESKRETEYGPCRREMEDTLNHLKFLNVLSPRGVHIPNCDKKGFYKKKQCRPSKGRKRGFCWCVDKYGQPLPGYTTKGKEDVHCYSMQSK

B1: ecto-TMEM219 (recombinant protein based on the TMEM219 extracellular domain) (domain or fragment)
chain: THRTGLRSPDIPQDWVSFLRSFGQLTLCPRNGTVTGKWRGSHVVGLLTTLNFGDGPDRNKTRTFQATVLGSQMGLKGSSAGQLVLITARVTTERTAGTCLYFSAVPGILPSSQPPISCSEEGAGNATLSPRMGEECVSVWSHEGLVLTKLLTSEELALCGSR
notes: TMEM219 extracellular domain, 162 amino acids as printed, molecular weight 18 kDa; Buffer 10 mM HEPES, 0.05% SDS, pH 7.5; also called newly generated recombinant protein based on TMEM219 extracellular portion; source: E. coli (vector pET30a), by Genscript, from inclusion bodies, one-step purification through Nickel column, purity >90%
Consider B1, for which the Kd (commonly the concentration at which binding is half-saturated) is 1010 nM.
